Experimental data reported in the supplement of paper PMC9170038.

Key:
Conditions in all cases: FMN input: 0 or 200 uM; Eterna round: R93 (includes R88 designs)
MS2 coat protein [1] = assay: apparent KD of MS2 coat protein, switch ON state; designed switch direction (-1 OFF switch, 1 ON switch): 1; higher = weaker reporter binding
How it was run: (§1)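 Apparent KD was obtained for each design as the median of normalised binding-curve fits over its clusters. RNA switches transcribed on-chip from Illumina sequencing clusters were titrated with SNAP-549-labelled MS2 coat protein (twofold steps, 0.7 or 1.5 nM to 3 µM) in 100 mM Tris-HCl pH 7.5, 80 mM KCl, 4 mM MgCl2, without or with constant ligand.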

MS2 coat protein [2] = assay: apparent KD of MS2 coat protein, switch OFF state (with FMN for OFF switches, without FMN for ON switches); designed switch direction (-1 OFF switch, 1 ON switch): 1; higher = weaker reporter binding
How it was run: as §1

MS2 coat protein [3] = assay: apparent KD of MS2 coat protein, switch OFF state (with FMN for OFF switches, without FMN for ON switches); designed switch direction (-1 OFF switch, 1 ON switch): -1; higher = weaker reporter binding
How it was run: as §1

MS2 coat protein [4] = assay: apparent KD of MS2 coat protein, switch ON state; designed switch direction (-1 OFF switch, 1 ON switch): -1; higher = weaker reporter binding
How it was run: as §1

Sequence | apparent KD of MS2 coat protein (MS2 coat protein [1]) | apparent KD of MS2 coat protein (MS2 coat protein [2]) | apparent KD of MS2 coat protein (MS2 coat protein [3]) | apparent KD of MS2 coat protein (MS2 coat protein [4])
AAAAAAAAAGUAGAGGAUAUCCAAAUGGCUACAUGAGGAUCACCCAUGUGAAGAAAAGCACAUGAGGAGAAGGCUACAAAAAAAAA [Blender bender] | 12.1 nM | 21.7 nM | – | –
AAAAAAAAAUCACAGGAUAUACGAAAAAAAACAUGAGGAUCACCCAUGUGAAAAAAAAAAAAAAAGUAGAAGGGUGAUCCAAAAAA | 12.6 nM | 8.77 nM | – | –
AAAAAACAAAGAGAGGAUAUCCUAAAAAAAACAUGAGGAUCACCCAUGUAAAGAAAUUUAAAAUGGGAGAAGGCUCUUUGAAAAA [Same State 2.6d ( Helter Skelter 1)] | 12.4 nM | 23.2 nM | – | –
AAAAAACAUGAGGAUCACCCAUGUAAAAAAAACACAGGAUAUCCCUUUUUAAAAAAAAAAGGAGAAGGGUGAAAAA [Nob's Hobby 6 - Jieux - Same State 1] | 29.8 nM | 28 nM | – | –
AAAAAACAUGAGGAUCACCCAUGUAACACUCAUGUAGGAUAUACAAAAAAAAAAAAAAAAGUAGAAGGACAAAAAA [Omei A variation 3] | 143 nM | 293 nM | – | –
AAAAAACAUGAGGAUCACCCAUGUAAUACAACGUCAGGAUAUUGAUUUUAUUAUGUAUUGCAAGAAGGGACAAAAA [Same State 1.3 (Same State 1 - Omei 2 - one GC added)] | 161 nM | 144 nM | – | –
AAAAAACAUGAGGAUCACCCAUGUAUAAAAAUGGGAGGAUAUACUAAGACGAAAGUCAUAGUAGAAGGUCUAAAAA [76%, Meechl, 11] | 137 nM | 241 nM | – | –
AAAAAACAUGAGGAUCACCCAUGUCAAAAGACAUGAGGAUAUGUACAGACUUCGGUCUGUACAGAAGGCAUGAAAA [SS1 - 1011] | 31.6 nM | 524 nM | – | –
AAAAAACAUGAGGAUCACCCAUGUCAAAAGACGUGAGGAUAUGUACAGACUUCGGUCUGUACAGAAGGCACGUCAA [SS1 - 1043] | 15.9 nM | 20.4 nM | – | –
AAAAAACAUGAGGAUCACCCAUGUCCAAAAAAAAAAGGAUAUGCAAAAAAAAAAAAAAAAGCAGAAGGUUUAAAAA [Same State 1] | 41.2 nM | 45.1 nM | – | –
AAAAAACAUGAGGAUCACCCAUGUCCUCGGACGUGAGGAUAUGUACAGACUUCGGUCUGUACAGAAGGCACAAAAA [SS1 - 1034] | 1240 nM | 333 nM | – | –
AAAAAACAUGAGGAUCACCCAUGUCUUCGGACAUGAGGAUAUGUACAGACUUCGGUCUGUACAGAAGGCAUGAAAA [SS1 - 1013] | 256 nM | 39.5 nM | – | –
AAAAAACAUGAGGAUCACCCAUGUGAAAAUAUGGGAGGAUAUCAUGGAAAAAAAAAAACAUGAGAAGGCCCAGAAA [SS! 1 MT 11] | 13.7 nM | 67.1 nM | – | –
AAAAAACAUGAGGAUCACCCAUGUGACAACAUGGGAGGAUAUACGAAGACGAGAGUCGAAGUAGAAGGCCUAAAAG [Garnet 78] | 117 nM | 65.3 nM | – | –
AAAAAACAUGAGGAUCACCCAUGUGAGAACAUGGGAGGAUAUACAAGGACGAGAGUCAAGGUAGAAGGCCUAAAGA [Mat - Same State 1 - Mod - D193] | 545 nM | 21.1 nM | – | –
AAAAAACAUGAGGAUCACCCAUGUGAGAACAUGGGAGGAUAUACGAGGACGAGAGUCAGAGUAGAAGGCCUAAAAA [Garnet 66] | 161 nM | 51.7 nM | – | –
AAAAAACAUGAGGAUCACCCAUGUGCAAAAUUCGCAGGAUAUUCCUCAAUUAAAUGAAAGGAAGAAGGGUGACAAA [Nob's Hobby 30 - Jieux - Same State 1] | 92.6 nM | 253 nM | – | –
AAAAAACAUGAGGAUCACCCAUGUGCAAAAUUCGCAGGAUAUUCUUUUUUUAAAUGAGAGGGAGAAGGGUGUAAAA [Nob's Hobby 21 - Jieux - Same State 1] | 25.5 nM | 22.4 nM | – | –
AAAAAACAUGAGGAUCACCCAUGUGCAAAAUUCGCAGGAUAUUUCUCAAUUAAAUGAGAGGAAGAAGGGUGACAAA [Nob's Hobby 28 - Jieux - Same State 1] | 95.9 nM | 55.3 nM | – | –
AAAAACAUGGUGUAGGAUAUAUUAAUAGUCACAUGAGGAUCACCCAUGUUCAUAUAUAUGAACGAGUAGAAGGACGAUGAAAAAA [Mat - Same state - Malcolm Mod - D108] | 244 nM | 237 nM | – | –
AAAAAGUGAUGGUAGGAUAUUGGAAAAGCCACAUGAGGAUCACCCAUGUCAAAAAACCUAAAAAACAAGAAGGGCUGUUAUAAAAA [Same State 2.2] | 18.6 nM | 24.7 nM | – | –

Sequence | apparent KD of MS2 coat protein (MS2 coat protein [1]) | apparent KD of MS2 coat protein (MS2 coat protein [2]) | apparent KD of MS2 coat protein (MS2 coat protein [3]) | apparent KD of MS2 coat protein (MS2 coat protein [4])
AAAACACAUGAGGAUCACCCAUGUGCAAAAUUCGCAGGAUAUUUCUCAAUUAAAUGAAAGGAAGAAGGGUGAUAAA [Nob's Hobby 34 - Jieux - Same State 1] | 19.4 nM | 29.4 nM | – | –
AAAACCUGCGUCGAGGAUAUGUAGCCCACUACAUGAGGAUCACCCAUGUGGAUCUUACUGGGUCGACAGAAGGUGAAAGUUAGGC [Onlele] | 36.3 nM | 34.7 nM | – | –
AAAAGACAUGAGGAUCACCCAUGUAAAAACAUAGGAGGAUAUGUCAUGAAAAAAGACUUGACAGAAGGCCUUUGUC [SS1 - 49] | 42 nM | 69.8 nM | – | –
AAAAGACAUGAGGAUCACCCAUGUCAAGACAUAGGAGGAUAUGUCUUGAAAAAAGACUUGACAGAAGGCCUUUGUC [SS1 - 58] | 16.5 nM | 21.1 nM | – | –
AAAAGACAUGAGGAUCACCCAUGUCCUCGGACAUGAGGAUAUGUACAGACUUCGGUCUGUACAGAAGGCAUGUAAA [SS1 - 1070] | 47.3 nM | 232 nM | – | –
AAAAGACAUGAGGAUCACCCAUGUGAAAACAUACAAGGAUAUGUGUGGAAACCGUACUAUACAGAAGGUGUAUGUC [SS1 - 85] | 19.7 nM | 28.5 nM | – | –
AAAAGACAUGAGGAUCACCCAUGUGAAAACGUGCGAGGAUAUGUAUGGAAACCAUACUGUACAGAAGGCGCGUGUC [SS1 - 83] | 24.4 nM | 32.3 nM | – | –
AAAAGACAUGAGGAUCACCCAUGUUAAGACGUGGGAGGAUAUGCAUGGAAAACAUGCUGUGCAGAAGGCCCGUGUC [SS1 - 23] | 19.8 nM | 78.6 nM | – | –
AAAAUAAAAAGGUAGGAUAUGGGUAAACCUACAUGAGGAUCACCCAUGUAAUAAAAAGAAAAAAACCAGAAGGACCAAAAUAAAA [72%, More Wateronthemoon, 9] | 12.8 nM | 55.2 nM | – | –
AAAAUAAAAUAAAAGGAUAUAAAAAUAUAUACAUGAGGAUCACCCAUGUAUAUAAAAAUAAAAUAAAAGAAGGAAUAAAAAUAAA [SS2 507: MS2 7] | 22.7 nM | 18.9 nM | – | –
AAAAUACAUGAGGAUCACCCAUGUCCGACAAAUCAAGGAUAUGAUAGCCUAACCAGGCUGUUAGAAGGUGAAAGAA [Laarera] | 637 nM | 51.1 nM | – | –
AAACCACAUGAGGAUCACCCAUGUAAAAAAUAUGGAGGAUAUACUAGAAGAAACAAAAUAGUAGAAGGCCAAAAAA [75%, Ex sub1, 29] | 20.3 nM | 24.6 nM | – | –
AAACCACAUGAGGAUCACCCAUGUAAAAAUAUGGAAGGAUAUGCGAAAAGAAACAAAGAAGCAGAAGGUCUAAAAA [75%, Ex sub1, 20] | 15.2 nM | 27.7 nM | – | –
AAACCACAUGAGGAUCACCCAUGUAAAAAUAUGGGAGGAUAUACUAGAAGAAACAAAAUAGUAGAAGGCCUAAAAA [75%, Ex sub1, 28] | 33.6 nM | 78.1 nM | – | –
AAAGAAAAACUAGAGGAUAUCUGAAUGGUAACAUGAGGAUCACCCAUGUGAAGAAAGGAACAUGAGGAGAAGGCUAGAAGAAAAA [JL Nando mod 17] | 11.4 nM | 35.4 nM | – | –
AAAUAAAGGAUUAAGGAUAUAUCACAUGAAACAUGAGGAUCACCCAUGUAAUAAUAUAAAGGGUGAUAGAAGGUAGUUUAUAAAUA [High Roller2] | 295 nM | 242 nM | – | –
AAAUAAAUGACUAAGGAUAUAUCGAAGAAGACAUGAGGAUCACCCAUGUGAUAAUAAAAAGGGUGGUAGAAGGUAGUCAACAAAC [Mod 5 of Pariah 4 by Hyphema in Round 1] | 65.4 nM | 116 nM | – | –
AAAUAAAUGACUAAGGAUAUCUCAGAGAAAACAUGAGGAUCACCCAUGUAAUAAUAACAUGAGUGAGAGAAGGUAGUCAACAAAC [Same State 2.3 (Pariah 4 -changed stack on 9nt hairpin)] | 24.3 nM | 57.5 nM | – | –
AAAUAACAUGAGGAUCACCCAUGUUGCAACGGUACAGGAUAUGUGGGUGAAAAUAGCAUGGCAGAAGGGUAGUGUA [SameState1 Malc#29] | 130 nM | 67.8 nM | – | –
UUUAUGUGAGGAUAUGUACAGAAAAAAAAGGGUGUAACUGUACAGAAGGCACAUGAGGAUCACCCAUGUGCAUU [EX4 382: S S Pseudoknot 7] | – | – | 21.8 nM | 27.9 nM
UUUCACCUAGGAUAUACAUGAGGAUCACCCAUGUGAGGCGAAGGACGGAGGGAUGGUAGUAGAAGGAGGACAAG [Mod of Gedier] | – | – | 21.6 nM | 19.5 nM
